Earlier results as cited in paper PMC4859759.

Molecular target: VEGFR2 IgG domains 3-5 (Homo sapiens) (UniProt P35968)
Sequence (P35968 224-548): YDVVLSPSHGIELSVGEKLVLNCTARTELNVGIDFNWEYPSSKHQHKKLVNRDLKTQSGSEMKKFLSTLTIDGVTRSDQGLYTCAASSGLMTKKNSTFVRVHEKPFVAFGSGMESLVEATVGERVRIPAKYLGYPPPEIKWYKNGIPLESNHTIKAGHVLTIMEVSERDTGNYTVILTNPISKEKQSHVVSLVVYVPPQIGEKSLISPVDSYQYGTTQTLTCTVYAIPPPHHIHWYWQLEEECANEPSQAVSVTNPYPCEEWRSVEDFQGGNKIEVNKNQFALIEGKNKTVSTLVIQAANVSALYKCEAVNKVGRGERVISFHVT

Sequence of endorepellin (perlecan) LG1/2 (P98160 3687-4103): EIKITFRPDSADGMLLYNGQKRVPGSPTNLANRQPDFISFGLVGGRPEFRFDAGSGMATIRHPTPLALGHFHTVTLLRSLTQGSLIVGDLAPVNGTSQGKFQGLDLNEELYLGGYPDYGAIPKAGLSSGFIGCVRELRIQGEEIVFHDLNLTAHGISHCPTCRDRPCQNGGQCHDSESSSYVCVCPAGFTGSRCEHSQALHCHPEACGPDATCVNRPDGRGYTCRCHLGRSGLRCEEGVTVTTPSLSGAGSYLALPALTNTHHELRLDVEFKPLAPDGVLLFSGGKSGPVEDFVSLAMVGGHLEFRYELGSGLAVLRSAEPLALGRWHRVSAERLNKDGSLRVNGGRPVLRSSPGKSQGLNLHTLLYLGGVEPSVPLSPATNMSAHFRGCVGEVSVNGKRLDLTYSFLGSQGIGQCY

- Kd: 2.8 nM
Substance: endorepellin (perlecan) LG1/2 (from UniProt P98160)
